What was measured:
[1] = biological target: F protein mutant RSV-DS-Cav1-B with a DS-Cav1 structure before fusion (respiratory syncytial virus subtype B, strain 18537) (UniProt P13843)
[2] = biological target: F protein mutant RSV-DS-Cav1-B with a DS-Cav1 structure before fusion (respiratory syncytial virus subtype B, strain 18537) (UniProt P13843); remark: listed apart in the source

Sequence of anti-RSV monoclonal antibody Clesrovimab (RB1) (VH): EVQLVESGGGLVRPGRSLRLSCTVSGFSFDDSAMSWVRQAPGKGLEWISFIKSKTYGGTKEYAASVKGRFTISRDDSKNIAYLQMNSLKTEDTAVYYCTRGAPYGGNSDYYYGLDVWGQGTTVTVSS
Sequence of anti-RSV monoclonal antibody Clesrovimab (RB1) (VL): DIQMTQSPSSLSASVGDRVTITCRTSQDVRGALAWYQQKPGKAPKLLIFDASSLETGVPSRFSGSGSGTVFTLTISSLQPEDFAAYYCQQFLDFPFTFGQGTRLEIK
Sequence of anti-RSV monoclonal antibody Nirsevimab (MEDI8897) (VH): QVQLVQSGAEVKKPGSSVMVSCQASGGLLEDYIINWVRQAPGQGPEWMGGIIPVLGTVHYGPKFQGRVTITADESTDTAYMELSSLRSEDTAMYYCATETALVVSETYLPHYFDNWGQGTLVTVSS
Sequence of anti-RSV monoclonal antibody Nirsevimab (MEDI8897) (VL): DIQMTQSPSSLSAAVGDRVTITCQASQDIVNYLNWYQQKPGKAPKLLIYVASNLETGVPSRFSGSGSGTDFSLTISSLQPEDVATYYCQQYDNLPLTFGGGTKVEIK

Row | Substance | Kd [1] | koff [1] | kon [1] | EC50 (read off the curve) [2]
1 | anti-RSV monoclonal antibody Clesrovimab (RB1) | 0.00895 nM | 8.21e-05 s⁻¹ | 9.17e+06 M⁻¹ s⁻¹ | 
2 | anti-RSV monoclonal antibody Nirsevimab (MEDI8897) | 3.08 nM | 0.000333 s⁻¹ | 108000 M⁻¹ s⁻¹ | 10 nM

— patent US20250388652A1
